From the supplement of paper PMC10065799, “High-throughput profiling of sequence recognition by tyrosine kinases and SH2 domains using bacterial peptide display” (eLife, 2023)

What follows are sequences tested on c-Abl (mouse) (assay: phosphorylation enrichment, bacterial display (enrichment ratio); higher = better substrate or ligand; peptides without Tyr show the background).
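Further: 11-residue human phosphosite peptides and single-mutation variants displayed on the E. coli surface, counted by deep sequencing, each peptide's frequency after selection divided by its frequency in the unselected input library; frequency after pTyr selection over input frequency; kinase dosed for 20-30% of maximal phosphorylation in three min.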

| Sequence | phosphorylation enrichment |
| --- | --- |
| GLSDLYVKIHL [SYT2_Y309_P308L] | 0.94 |
| EQSGSYIWVPA [DLG1_Y895] | 0.807 |
| PIYEGYALPHA [ACTA1_Y171] | 31.3 |
| LTVVIYVLIGR [EPHA3_Y561] | 1.9 |
| NFDRIYIFHLR [MYOF_Y1137_V1136I_YF] | 0.993 |
| SQQTFCRVSNM [ABCD1_Y181_Y181C_YF] | 0.567 |
| ERCAQYKKDGA [ALDOA_Y138] | 0.496 |
| FEPWVYSLSYE [PRKDC_Y647_F649L] | 0.707 |
| DPTNTYARPAE [SGMS2_Y24] | 0.696 |
| KDAGDYKCKAK [LRIT3_Y326] | 0.654 |
| EKAEVYRSENE [RIOK2_Y348_G349R] | 0.77 |
| EGTGHYLCNAC [GATA5_Y208_D203E] | 0.525 |
| DSILVYQRKEQ [USH2A_Y1909_G1911R] | 0.55 |
| LIHTKCPQLLP [AHCY_Y143_Y143C] | 0.604 |
| LNEAVYTKMMT [G6PD_Y401_P396L] | 0.881 |
| KKARAYRPGIE [FLNA_Y287_G288R] | 0.455 |
| KRISCYEARYQ [PFKFB3_Y194_S197R] | 0.526 |

| Sequence | phosphorylation enrichment |
| --- | --- |
| ADARMYGVLPW [PLP1_Y207] | 1.24 |
| RMSQRYGDVLQ [CYP1A2_Y72] | 0.747 |
| LIFTNYEVGKD [GSTP1_Y112_A114V_YF] | 1.3 |
| RQSTLYSFFPK [MSH6_Y8] | 5.61 |
| LADKPYTFEDF [FXN_Y118_YF] | 0.738 |
| NGRQCYSCRGN [PLAUR_Y217_K220R] | 0.374 |
| HEEKVYLSRGD [CRACR2A_Y141] | 0.826 |
| PPTFRYERGSR [INPPL1_Y663_YF] | 0.704 |
| TDTQLYGRFGS [ITGA2B_Y384_G380D] | 0.769 |
| YRNKPYISWPS [CDC42BPB_Y1638_S1633Y] | 0.401 |
| LERYIYNREEF [HLA-DPB1_Y59] | 0.757 |
| LFNQDYPIHSV [GATM_Y227_YF] | 0.984 |
| RAADYYSQQMA [GBP6_Y334] | 0.576 |
| QRIFQYIQSRF [DYRK1B_Y273_YF] | 0.583 |
| SVTCTYSPTLN [TP53_Y126_A129T] | 0.926 |
| EWQQIYTYDSG [JUP_Y20_T19I] | 0.75 |

The sequences below were run against EPHB2 (UniProt P29323) in the same assay as above.
EPHB2, sequence (P29323 whole entry, looked up): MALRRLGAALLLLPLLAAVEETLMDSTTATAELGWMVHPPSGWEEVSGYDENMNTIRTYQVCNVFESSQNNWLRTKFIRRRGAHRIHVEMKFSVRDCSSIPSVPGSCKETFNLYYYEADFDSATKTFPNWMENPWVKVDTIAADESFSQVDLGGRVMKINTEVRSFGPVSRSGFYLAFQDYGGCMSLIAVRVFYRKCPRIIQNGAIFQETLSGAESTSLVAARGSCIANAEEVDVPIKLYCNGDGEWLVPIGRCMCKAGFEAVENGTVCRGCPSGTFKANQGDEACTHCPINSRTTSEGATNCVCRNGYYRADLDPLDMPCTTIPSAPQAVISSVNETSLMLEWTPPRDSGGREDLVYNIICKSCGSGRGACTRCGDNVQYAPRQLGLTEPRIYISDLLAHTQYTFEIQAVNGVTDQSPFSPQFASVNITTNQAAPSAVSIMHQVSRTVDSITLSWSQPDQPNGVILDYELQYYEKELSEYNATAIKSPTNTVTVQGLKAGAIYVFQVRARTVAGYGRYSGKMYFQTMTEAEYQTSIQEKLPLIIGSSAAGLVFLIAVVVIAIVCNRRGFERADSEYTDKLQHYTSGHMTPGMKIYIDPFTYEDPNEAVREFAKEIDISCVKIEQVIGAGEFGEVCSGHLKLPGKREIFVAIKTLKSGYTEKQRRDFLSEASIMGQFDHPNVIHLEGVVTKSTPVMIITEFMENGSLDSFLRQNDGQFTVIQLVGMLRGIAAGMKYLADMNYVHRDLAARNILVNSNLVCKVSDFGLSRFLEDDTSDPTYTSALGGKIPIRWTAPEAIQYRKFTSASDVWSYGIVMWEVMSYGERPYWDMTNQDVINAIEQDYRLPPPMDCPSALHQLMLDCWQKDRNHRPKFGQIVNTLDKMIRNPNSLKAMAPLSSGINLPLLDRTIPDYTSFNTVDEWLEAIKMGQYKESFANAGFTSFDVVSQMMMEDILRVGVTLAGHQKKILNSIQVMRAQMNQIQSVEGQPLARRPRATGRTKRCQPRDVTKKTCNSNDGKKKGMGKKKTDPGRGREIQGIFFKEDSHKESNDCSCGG

| Sequence | phosphorylation enrichment |
| --- | --- |
| GLSDLYVKIHL [SYT2_Y309_P308L] | 0.615 |
| EQSGSYIWVPA [DLG1_Y895] | 0.615 |
| PIYEGYALPHA [ACTA1_Y171] | 35.7 |
| LTVVIYVLIGR [EPHA3_Y561] | 1.77 |
| NFDRIYIFHLR [MYOF_Y1137_V1136I_YF] | 0.705 |
| SQQTFCRVSNM [ABCD1_Y181_Y181C_YF] | 0.515 |
| ERCAQYKKDGA [ALDOA_Y138] | 0.487 |
| FEPWVYSLSYE [PRKDC_Y647_F649L] | 0.767 |
| DPTNTYARPAE [SGMS2_Y24] | 0.581 |
| KDAGDYKCKAK [LRIT3_Y326] | 0.312 |
| EKAEVYRSENE [RIOK2_Y348_G349R] | 0.738 |
| EGTGHYLCNAC [GATA5_Y208_D203E] | 0.375 |
| DSILVYQRKEQ [USH2A_Y1909_G1911R] | 0.546 |
| LIHTKCPQLLP [AHCY_Y143_Y143C] | 0.607 |
| LNEAVYTKMMT [G6PD_Y401_P396L] | 1.8 |
| KKARAYRPGIE [FLNA_Y287_G288R] | 0.417 |
| KRISCYEARYQ [PFKFB3_Y194_S197R] | 0.415 |

| Sequence | phosphorylation enrichment |
| --- | --- |
| ADARMYGVLPW [PLP1_Y207] | 2.48 |
| RMSQRYGDVLQ [CYP1A2_Y72] | 0.41 |
| LIFTNYEVGKD [GSTP1_Y112_A114V_YF] | 1.78 |
| RQSTLYSFFPK [MSH6_Y8] | 18.9 |
| LADKPYTFEDF [FXN_Y118_YF] | 1.86 |
| NGRQCYSCRGN [PLAUR_Y217_K220R] | 0.319 |
| HEEKVYLSRGD [CRACR2A_Y141] | 0.526 |
| PPTFRYERGSR [INPPL1_Y663_YF] | 0.579 |
| TDTQLYGRFGS [ITGA2B_Y384_G380D] | 0.583 |
| YRNKPYISWPS [CDC42BPB_Y1638_S1633Y] | 0.461 |
| LERYIYNREEF [HLA-DPB1_Y59] | 1.22 |
| LFNQDYPIHSV [GATM_Y227_YF] | 0.787 |
| RAADYYSQQMA [GBP6_Y334] | 0.339 |
| QRIFQYIQSRF [DYRK1B_Y273_YF] | 0.356 |
| SVTCTYSPTLN [TP53_Y126_A129T] | 0.682 |
| EWQQIYTYDSG [JUP_Y20_T19I] | 0.971 |

These sequences were tested on c-Src in the same assay as above.

| Sequence | phosphorylation enrichment |
| --- | --- |
| GLSDLYVKIHL [SYT2_Y309_P308L] | 0.495 |
| EQSGSYIWVPA [DLG1_Y895] | 0.511 |
| PIYEGYALPHA [ACTA1_Y171] | 14.8 |
| LTVVIYVLIGR [EPHA3_Y561] | 0.643 |
| NFDRIYIFHLR [MYOF_Y1137_V1136I_YF] | 0.724 |
| SQQTFCRVSNM [ABCD1_Y181_Y181C_YF] | 0.411 |
| ERCAQYKKDGA [ALDOA_Y138] | 0.391 |
| FEPWVYSLSYE [PRKDC_Y647_F649L] | 6.59 |
| DPTNTYARPAE [SGMS2_Y24] | 0.372 |
| KDAGDYKCKAK [LRIT3_Y326] | 0.384 |
| EKAEVYRSENE [RIOK2_Y348_G349R] | 0.509 |
| EGTGHYLCNAC [GATA5_Y208_D203E] | 0.395 |
| DSILVYQRKEQ [USH2A_Y1909_G1911R] | 0.626 |
| LIHTKCPQLLP [AHCY_Y143_Y143C] | 0.433 |
| LNEAVYTKMMT [G6PD_Y401_P396L] | 5.76 |
| KKARAYRPGIE [FLNA_Y287_G288R] | 0.449 |
| KRISCYEARYQ [PFKFB3_Y194_S197R] | 0.365 |

| Sequence | phosphorylation enrichment |
| --- | --- |
| ADARMYGVLPW [PLP1_Y207] | 6.65 |
| RMSQRYGDVLQ [CYP1A2_Y72] | 0.595 |
| LIFTNYEVGKD [GSTP1_Y112_A114V_YF] | 0.825 |
| RQSTLYSFFPK [MSH6_Y8] | 7.83 |
| LADKPYTFEDF [FXN_Y118_YF] | 3.9 |
| NGRQCYSCRGN [PLAUR_Y217_K220R] | 0.294 |
| HEEKVYLSRGD [CRACR2A_Y141] | 1.08 |
| PPTFRYERGSR [INPPL1_Y663_YF] | 0.521 |
| TDTQLYGRFGS [ITGA2B_Y384_G380D] | 7.4 |
| YRNKPYISWPS [CDC42BPB_Y1638_S1633Y] | 0.522 |
| LERYIYNREEF [HLA-DPB1_Y59] | 2.63 |
| LFNQDYPIHSV [GATM_Y227_YF] | 0.81 |
| RAADYYSQQMA [GBP6_Y334] | 0.435 |
| QRIFQYIQSRF [DYRK1B_Y273_YF] | 0.557 |
| SVTCTYSPTLN [TP53_Y126_A129T] | 0.58 |
| EWQQIYTYDSG [JUP_Y20_T19I] | 6.89 |

These sequences were tested against FGFR1 (UniProt P11362) in the same assay as above.
FGFR1, sequence (P11362 whole entry, looked up): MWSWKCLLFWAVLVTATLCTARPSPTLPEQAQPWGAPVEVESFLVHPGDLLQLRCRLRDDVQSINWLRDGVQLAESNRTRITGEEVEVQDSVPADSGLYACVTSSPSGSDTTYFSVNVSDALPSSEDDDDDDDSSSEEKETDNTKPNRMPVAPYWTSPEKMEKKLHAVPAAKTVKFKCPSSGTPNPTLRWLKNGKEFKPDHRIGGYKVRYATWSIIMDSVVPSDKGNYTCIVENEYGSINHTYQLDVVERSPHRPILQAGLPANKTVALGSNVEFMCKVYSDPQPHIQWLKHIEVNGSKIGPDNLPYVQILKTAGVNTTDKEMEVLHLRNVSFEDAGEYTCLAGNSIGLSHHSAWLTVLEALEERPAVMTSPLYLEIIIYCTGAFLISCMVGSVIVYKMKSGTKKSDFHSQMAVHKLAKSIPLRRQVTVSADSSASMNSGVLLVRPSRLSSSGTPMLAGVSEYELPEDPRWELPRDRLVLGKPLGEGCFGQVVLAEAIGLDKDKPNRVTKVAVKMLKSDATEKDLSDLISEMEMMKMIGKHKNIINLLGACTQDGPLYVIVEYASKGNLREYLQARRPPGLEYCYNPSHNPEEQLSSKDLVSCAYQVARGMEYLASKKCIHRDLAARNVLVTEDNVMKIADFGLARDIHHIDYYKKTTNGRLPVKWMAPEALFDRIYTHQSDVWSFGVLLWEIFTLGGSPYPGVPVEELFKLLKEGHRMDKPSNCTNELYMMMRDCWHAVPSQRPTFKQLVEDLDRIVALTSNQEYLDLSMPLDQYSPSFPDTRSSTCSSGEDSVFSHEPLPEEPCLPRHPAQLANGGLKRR

| Sequence | phosphorylation enrichment |
| --- | --- |
| GLSDLYVKIHL [SYT2_Y309_P308L] | 0.452 |
| EQSGSYIWVPA [DLG1_Y895] | 8.59 |
| PIYEGYALPHA [ACTA1_Y171] | 1.01 |
| LTVVIYVLIGR [EPHA3_Y561] | 0.691 |
| NFDRIYIFHLR [MYOF_Y1137_V1136I_YF] | 0.594 |
| SQQTFCRVSNM [ABCD1_Y181_Y181C_YF] | 0.446 |
| ERCAQYKKDGA [ALDOA_Y138] | 0.438 |
| FEPWVYSLSYE [PRKDC_Y647_F649L] | 0.602 |
| DPTNTYARPAE [SGMS2_Y24] | 0.598 |
| KDAGDYKCKAK [LRIT3_Y326] | 0.448 |
| EKAEVYRSENE [RIOK2_Y348_G349R] | 0.507 |
| EGTGHYLCNAC [GATA5_Y208_D203E] | 0.462 |
| DSILVYQRKEQ [USH2A_Y1909_G1911R] | 0.517 |
| LIHTKCPQLLP [AHCY_Y143_Y143C] | 0.509 |
| LNEAVYTKMMT [G6PD_Y401_P396L] | 1.38 |
| KKARAYRPGIE [FLNA_Y287_G288R] | 0.299 |
| KRISCYEARYQ [PFKFB3_Y194_S197R] | 0.392 |

| Sequence | phosphorylation enrichment |
| --- | --- |
| ADARMYGVLPW [PLP1_Y207] | 0.511 |
| RMSQRYGDVLQ [CYP1A2_Y72] | 0.89 |
| LIFTNYEVGKD [GSTP1_Y112_A114V_YF] | 1.17 |
| RQSTLYSFFPK [MSH6_Y8] | 6.8 |
| LADKPYTFEDF [FXN_Y118_YF] | 2.21 |
| NGRQCYSCRGN [PLAUR_Y217_K220R] | 0.356 |
| HEEKVYLSRGD [CRACR2A_Y141] | 0.672 |
| PPTFRYERGSR [INPPL1_Y663_YF] | 0.803 |
| TDTQLYGRFGS [ITGA2B_Y384_G380D] | 0.487 |
| YRNKPYISWPS [CDC42BPB_Y1638_S1633Y] | 0.394 |
| LERYIYNREEF [HLA-DPB1_Y59] | 0.564 |
| LFNQDYPIHSV [GATM_Y227_YF] | 3.19 |
| RAADYYSQQMA [GBP6_Y334] | 1.38 |
| QRIFQYIQSRF [DYRK1B_Y273_YF] | 0.416 |
| SVTCTYSPTLN [TP53_Y126_A129T] | 0.606 |
| EWQQIYTYDSG [JUP_Y20_T19I] | 6.84 |
